Laboratory results reported in patent publication US20210017264A1 (SHANGHAI YILE BIOTECHNOLOGY, published 2021).

Molecular target: T1, human proBDNF protein (prokaryotically expressed, Example 1) (human, UniProt P23560 19-247)
T1 construct: Vector-derived residues or tags are not described; also called human proBDNF antigen; recombinant human proBDNF
T1 sequence (looked up): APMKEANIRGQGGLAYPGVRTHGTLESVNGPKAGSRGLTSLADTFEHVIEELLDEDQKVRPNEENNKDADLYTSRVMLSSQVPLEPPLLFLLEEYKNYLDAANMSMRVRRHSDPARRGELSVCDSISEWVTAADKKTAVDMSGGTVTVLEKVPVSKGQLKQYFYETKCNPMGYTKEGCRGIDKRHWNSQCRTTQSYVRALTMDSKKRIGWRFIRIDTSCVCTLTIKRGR
Test: SPR, Biacore T200; human proBDNF coated directly on the chip (~500 RU); 2B11 injected at 10-160 nM, 25 C; 1:1 Langmuir model
Protocol: Binding affinity of 2B11 against recombinant human proBDNF was measured by Surface Plasmon resonance (SPR) using Biacore T200™. 1×HBS-EP+ buffer was used as running buffer. Recombinant human proBDNF was directly coated on CMS biosensor chip to achieve approximately 500 response units (RU). For kinetics measurements, two-fold serial dilutions (10 nM to 160 nM) were injected at 25° C. with a flow rate of 30u1/min. Association rate (Kₐ) and dissociation rate (Kd) were calculated using a simple one to one Langmuir binding model (BIAcore Evaluation software version 3.2). The equilibrium dissociation constant (kD) was calculated as the ratio Kd/Kₐ. The binding affinity of 2B11 to human proBDNF is reported below: […]

- Kd: 4.04 nM
- koff: 0.00116 s⁻¹
- kon: 288000 M⁻¹ s⁻¹
B1: anti-proBDNF monoclonal antibody 2B11 (antibody, human IgG1, kappa, V domains shown)
VH: EVKVVESGGGLVQPGGSLRLSCATSGFTFTDYYMSWVRQPPGKALEWLGFIRNKANGYTTEYSSSVKGRFTISRDNSQSILYLQMNTLRAEDSATYYCAITMDYWGQGTSVTVSS
VL: DIQMTQSPASLSASVGETVTITCRASGNIHNYLAWYQKKQGKSPHLLVYNAQTLADGVPSRFSGSASGTQYSLKIDSLQPEDFGSYYCQHFWSTPFTFGSGTKLEIKR
notes: also called murine monoclonal antibody 2B11; antibody secreted from clone 2B11
